According to patent US20230118104A1, “COMPOSITIONS AND METHODS FOR TREATING PANCREATIC ENZYME DEFICIENCIES IN MAMMALS” (Vets Plus, Inc., priority 2018, published 2023):

Tests used:
Type in all cases: biochemical
[1] = Amylase enzyme analysis, Benedict's Test, substrate Starch; details: enzyme 1 mg/ml, 10 minutes, pH 7, 38° C., 580 nm, n = 4
Protocol: (§1) Amylase enzyme from porcine and Bacillus amyloliquefaciens at 1 mg/ml concentration and a control of no enzymes were subjected to the Benedict's Test for 10 minutes at pH 7, 38° C., followed by spectrophotometric analysis at […].

[2] = Amylase enzyme analysis, Benedict's Test, substrate Maltose; details: enzyme 1 mg/ml, 10 minutes, pH 7, 38° C., 580 nm, n = 4
Protocol: as §1

[3] = Amylase enzyme analysis, Benedict's Test, substrate Dextrose; details: enzyme 1 mg/ml, 10 minutes, pH 7, 38° C., 580 nm, n = 4
Protocol: as §1

[4] = Lipase enzyme analysis, free fatty acid (Phenolphthalein) Test; details: substrate Fat / Vegetable oil; enzyme 1 mg/ml; 480 nM; n = 4
Protocol: Lipase enzyme from porcine and Rhizopus oryzae at 1 mg/ml concentration and a control of no enzymes were subjected the free fatty acid (Phenolphthalein) Test followed by spectrophotometric analysis at […].

Row | absorbance, Benedict's Test [1] | absorbance, Benedict's Test [2] | absorbance, Benedict's Test [3] | absorbance, free fatty acid (Phenolphthalein) Test [4] | Molecule
1 | 2.087 +/− 0.11 | 3.108 +/− 0.15 | 3.078 +/− 0.13 | – | Porcine Amylase: Amylase enzyme from porcine (protein, UniProt P00690 16-511, looked up) Pancreatic alpha-amylase: QYAPQTQSGRTSIVHLFEWRWVDIALECERYLGPKGFGGVQVSPPNENIVVTNPSRPWWERYQPVSYKLCTRSGNENEFRDMVTRCNNVGVRIYVDAVINHMCGSGAAAGTGTTCGSYCNPGNREFPAVPYSAWDFNDGKCKTASGGIESYNDPYQVRDCQLVGLLDLALEKDYVRSMIADYLNKLIDIGVAGFRIDASKHMWPGDIKAVLDKLHNLNTNWFPAGSRPFIFQEVIDLGGEAIQSSEYFGNGRVTEFKYGAKLGTVVRKWSGEKMSYLKNWGEGWGFMPSDRALVFVDNHDNQRGHGAGGASILTFWDARLYKVAVGFMLAHPYGFTRVMSSYRWARNFVNGQDVNDWIGPPNNNGVIKEVTINADTTCGNDWVCEHRWRQIRNMVWFRNVVDGQPFANWWANGSNQVAFGRGNRGFIVFNNDDWQLSSTLQTGLPGGTYCDVISGDKVGNSCTGIKVYVSSDGTAQFSISNSAEDPFIAIHAESKL
2 | – | – | – | 3.17 +/− 0.11 | Porcine Lipase: Lipase enzyme from porcine (protein, UniProt P00591 1-450, looked up) Pancreatic triacylglycerol …: SEVCFPRLGCFSDDAPWAGIVQRPLKILPWSPKDVDTRFLLYTNQNQNNYQELVADPSTITNSNFRMDRKTRFIIHGFIDKGEEDWLSNICKNLFKVESVNCICVDWKGGSRTGYTQASQNIRIVGAEVAYFVEVLKSSLGYSPSNVHVIGHSLGSHAAGEAGRRTNGTIERITGLDPAEPCFQGTPELVRLDPSDAKFVDVIHTDAAPIIPNLGFGMSQTVGHLDFFPNGGKQMPGCQKNILSQIVDIDGIWEGTRDFVACNHLRSYKYYADSILNPDGFAGFPCDSYNVFTANKCFPCPSEGCPQMGHYADRFPGKTNGVSQVFYLNTGDASNFARWRYKVSVTLSGKKVTGHILVSLFGNEGNSRQYEIYKGTLQPDNTHSDEFDSDVEVGDLQKVKFIWYNNNVINPTLPRVGASKITVERNDGKVYDFCSQETVREEVLLTLNPC
